In US6403765B1, “Truncated Apaf-1 and methods of use thereof” (Thomas Jefferson University, priority 1998, dated 2002):

T1: procaspase-9 (Homo sapiens, UniProt P55211)
T1 construct: schematic representation of full length procaspase-9; made in house; host or cells: coupled in vitro transcription/translation in rabbit reticulocyte lysate (TNT Kit, Promega)
T1 sequence (P55211 1-416): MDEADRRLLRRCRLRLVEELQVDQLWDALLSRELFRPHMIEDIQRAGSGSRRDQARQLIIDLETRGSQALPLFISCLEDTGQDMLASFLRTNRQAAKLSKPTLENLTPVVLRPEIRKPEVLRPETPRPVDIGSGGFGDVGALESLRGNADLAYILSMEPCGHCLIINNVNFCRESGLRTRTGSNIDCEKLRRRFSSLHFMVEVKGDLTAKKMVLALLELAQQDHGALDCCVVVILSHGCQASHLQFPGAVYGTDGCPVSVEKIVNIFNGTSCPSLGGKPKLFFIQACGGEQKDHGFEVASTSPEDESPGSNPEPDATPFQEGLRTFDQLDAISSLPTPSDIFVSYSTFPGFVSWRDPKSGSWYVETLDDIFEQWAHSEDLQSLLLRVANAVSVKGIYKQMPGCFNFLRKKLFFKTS


Tests used:
procaspase-9 [1] = experiment: Autoprocessing of in vitro translated procaspase-9 and Fc-fusion procaspase-9 variants; format: biochemical; details: 35S-labeled, FIG. 9
Excerpt: (§1) ^35S-labeled caspases were obtained by in vitro translation in the presence of ^35S-methionine using a coupled transcription/translation system in rabbit reticulocyte lysate using TNT Kit (Promega) according to the manufacturer's recommendations.
Artificially-induced oligomerization of procaspase-1 or procaspase-8 by overexpression or by heterologous-inducible oligomerization systems causes their autocatalytic processing/activation (Gu et al., EMBO 14:1923-1931, 1995; Muzio et al., J. Biol. Chem. 273:2926-2930, 1998; Yang et al., Mol. Cell 1:319-325, 1998). To test if procaspase-9 can also be activated by heterologous oligomerization, WT and the C287A mutant procaspase-9 was fused to the mouse IgG-Fc portion which can form spontaneous dimers by intermolecular disulfide linkages. FIG. 9 depicts processing of non-fusion WT procaspase-9 (pcasp-9, lane 1) or C-terminal Fc-fusion WT (pcasp-9-Fc, lane 2) or C287A (active site) mutant (pcasp-9-C287A-Fc, lane 3) procaspase-9 which were in vitro translated in the presence of ^35S-methionine and then analyzed by SDS-PAGE and autoradiography.

MCF-7 cells [2] = experiment: Induction of apoptosis in MCF-7 cells transfected with procaspase-9 variants; format: cell-based; details: overexpression, 30 hours after transfection, FIG. 10
Excerpt: (§2) To express the caspases or truncated Apaf-1 in mammalian cells and assay their apoptotic activity, they were amplified with the T7-tag primer and reverse primers using the pET28a constructs as templates, and subcloned into the mammalian double expression vector pRSC-LacZ (MacFarlane et al., J. Biol. Chem., 272:25417-25420, 1997; Tsang et al., Bio/Technology, 22:68, 1997) or as previously described (Li et al., Cell 91:479-489, 1997; Srinivasula et al., J. Biol. Chem., 272:18452-18545, 1997). This vector allows the expression of lacZ under the Rous Sarcoma virus promoter, and the test cDNA under the CMV promoter. To assay for apoptosis, MCF-7 or 293 cells were transfected, using the method commercially available as the Lipofect Amine method (Life Technologies, Inc.), with the pRSC-LacZ constructs in the presence or absence of different apoptosis-inhibitors. 30 h after transfection cells were stained with β-galactosidase and examined for morphological signs of apoptosis. The percentage of round blue apoptotic cells (mean±SD) were determined by phase contrast microscopy and then represented as a function of total blue cells under each condition (n≧3).
In FIG. 10, mammalian expression constructs encoding Fc or the procaspase-9 variants described in FIG. 9 were transfected into MCF-7 cells together with a reporter β-gal expression construct at a ratio of 3:1. […]

procaspase-9 [3] = experiment: Cytochrome c/dATP-dependent processing of procaspase-9 in 293 cellular S100 extract; format: biochemical; details: 293 S100 extract, increasing amounts of purified protein, 1 hour at 30° C., dose-dependent, FIG. 18
Procedure: To study processing of procaspase-9 in the cytochrome c/Apaf-1-dependent pathway, WT and the Asp to Ala mutants of procaspase-9 were incubated with a cellular S100 extract in the presence or absence of cytochrome c and dATP. […] Samples were then analyzed by SDS-PAGE and autoradiography.
(§3) To confirm this, a time course analysis of procaspase-9 and procaspase-3 processing was performed in cellular S100 extracts from 293 and MCF-7 cells. […] At the indicated times the reactions were stopped and then analyzed by SDS-PAGE and autoradiography (procaspase-9 panels) or Western blot analysis using anti-caspase-3 p20 polyclonal antibody (procaspase-3 panels). Small arrows indicate a non-specific band detected by the anti-caspase-3 antibody.
(§4) In FIG. 18, 293 cellular S100 extracts supplemented with ^35S-labeled procaspase-9 (upper panel) or procaspase-3 (lower panel) were incubated with (lanes 3-7) or without (lane 2) cytochrome c plus dATP in the presence of increasing amounts of purified recombinant procaspase-9-C287A mutant for 1 hour at 30° C. and then analyzed by SDS-PAGE and autoradiography. […] Consequently, the Apaf-1/caspase-9 pathway appears to be a central apoptotic pathway, on which most apoptotic signals converge.

[4] = tested on: apoptosis induced by the proapoptotic members of the Bcl-2 family; details: Hegde et al. 1998; Li et al. 1997; cited from earlier work
procaspase-3 = experiment: Cytochrome c/dATP-dependent processing of procaspase-3 in 293 cellular S100 extract; format: biochemical; details: 293 S100 extract, increasing amounts of purified protein, 1 hour at 30° C., dose-dependent, FIG. 18
Procedure: as §3
In FIG. 8, ^35S-labeled procaspase-3, -6 or -7 were incubated with S100 extracts from 293 cells in the presence or absence of cytochrome c/dATP or DEVD-CHO, or both and analyzed by SDS-PAGE followed by autoradiography. However, when DEVD-CHO was included, processing of procaspase-6 (lane 6), but not procaspase-3 (lane 3) or -7 (lane 9) was inhibited. […] Also, since caspase-7 cannot process procaspase-6 (Srinivasula et al., J. Biol. Chem. 271:27099-27106, 1996), caspase-3 is the one responsible for processing of procaspase-6 in the cytochrome c plus dATP-dependent pathway.
as §4

procaspase-9 [5] = molecular target: T1, procaspase-9; experiment: In vitro caspase 9 activation assay: recombinant Apaf-1 variants incubated with in vitro translated procaspase-9; format: biochemical; details: in vitro reconstituted system, data not shown
Procedure: SDS sample buffer was then added to each sample, boiled and subjected to SDS-PAGE analysis followed by autoradiography. In FIG. 2A procaspase-9 was in vitro translated in the presence of ^35S-methionine. Following translation procaspase-9 was desalted by gel filtration through a biospin column (BioRad) to remove unincorporated methionine and free nucleotides. Desalted procaspase-9 was then incubated with 200 ng Ni^2+-affinity purified bacterially expressed recombinant Apaf-530 (WT or K149R mutant) in the presence or absence of cytochrome c or dATP or both for 2 h at 30° C. A mock sample containing Ni^2+-affinity purified material from bacteria transformed with an empty vector was used as a negative control. Following incubation the products were analyzed by SDS-PAGE and autoradiography. In FIG. 2B^35S-labeled procaspase-9 (as described above) was incubated with bacterial lysates containing truncated Apaf-1 variants as indicated and then analyzed as above (2B upper panel). The bacterial lysates were analyzed by SDS-PAGE and immunoblotted with an Apaf-1 antibody which recognizes the N-terminus of Apaf-1 (lanes 2-6) and an anti T7-tag antibody (lanes 7-8) to confirm expression and equivalent concentration of the different Apaf-1 variants (2B lowerpanel). The molecular mass markers are indicated to the right of the lower panel.
as §1
To determine the role of the WD-40 repeat in the mechanism of Apaf-1-induced processing of procaspase-9, truncated Apaf-1 (Apaf-530) lacking its WD-40 repeats (FIG. 1) was expressed and purified. To reconstitute a recombinant caspase-9 activation system, the truncated Apaf-530 was incubated with in vitro translated recombinant procaspase-9 in the presence or absence of cytochrome c and dATP. […] It was previously shown that mutation of CED-4 K165R which is required for nucleotide binding destroys its activity (Chinnaiyan et al., Nature 388:728-729, 1997; Jarnes et al., Curr. Biol. 7:246-252, 1997; Seshagiri and Miller, Curr. Biol. 7:455-460, 1997). […] Therefore, either binding of Apaf-1 to cytochrome c and dATP or deletion of the repeats could induce a conformational change enabling Apaf-1 to bind and process procaspase-9.
In FIG. 3, ^35S-labeled WT or mutant D330A, D315A or C287A mutants of procaspase-9 or prodomainless procaspase-9 (Δpro, residues 134-416) were incubated with buffer (lanes 1, 4, 7, 10, 13), purified Apaf-530 (lanes 2, 5, 8, 11, 14) or mock purified material (lanes, 3, 6, 9, 12, 15) and then analyzed by SDS-PAGE and autoradiography.

MCF-7 cells [6] = experiment: Inhibition of apoptosis in transfected MCF-7 cells; format: cell-based; details: apoptosis induced by UV, Fas agonist antibody
Excerpt: as §2

Row | self-processing to large subunit (p35) and small subunit (procaspase-9 [1]) | attenuation of cytochrome c/dATP-induced activation of procaspase-9 (procaspase-9 [3]) | attenuation of cytochrome c/dATP-induced activation of procaspase-3 (procaspase-3) | attenuation of Apaf-530-induced activation of procaspase-9 (procaspase-9 [5]) | Molecule | induction of apoptosis (MCF-7 cells [2]) | inhibition of apoptosis induced by the proapoptotic members of the Bcl-2 family [4] | inhibition of apoptosis (MCF-7 cells [6]; TRAIL, or overexpression of DR4 and DR5, FIG. 17) | inhibition of apoptosis (MCF-7 cells [6]; TRAIL, or overexpression of DR4 and DR5, FIG. 17, listed as dominant negative caspase-9 mutant)
1 | incapable of processing |  |  |  | WT procaspase-9: non-fusion wild type procaspase-9 (protein) MDEADRRLLRRCRLRLVEELQVDQLWDALLSRELFRPHMIEDIQRAGSGSRRDQARQLIIDLETRGSQALPLFISCLEDTGQDMLASFLRTNRQAAKLSKPTLENLTPVVLRPEIRKPEVLRPETPRPVDIGSGGFGDVGALESLRGNADLAYILSMEPCGHCLIINNVNFCRESGLRTRTGSNIDCEKLRRRFSSLHFMVEVKGDLTAKKMVLALLELAQQDHGALDCCVVVILSHGCQASHLQFPGAVYGTDGCPVSVEKIVNIFNGTSCPSLGGKPKLFFIQACGGEQKDHGFEVASTSPEDESPGSNPEPDATPFQEGLRTFDQLDAISSLPTPSDIFVSYSTFPGFVSWRDPKSGSWYVETLDDIFEQWAHSEDLQSLLLRVANAVSVKGIYKQMPGCFNFLRKKLFFKTS | induced little apoptosis |  |  | 
2 |  | able to attenuate | able to attenuate | A similar result | Caspase-9-DN: dominant negative procaspase-9-C287A mutant (protein) MDEADRRLLRRCRLRLVEELQVDQLWDALLSRELFRPHMIEDIQRAGSGSRRDQARQLIIDLETRGSQALPLFISCLEDTGQDMLASFLRTNRQAAKLSKPTLENLTPVVLRPEIRKPEVLRPETPRPVDIGSGGFGDVGALESLRGNADLAYILSMEPCGHCLIINNVNFCRESGLRTRTGSNIDCEKLRRRFSSLHFMVEVKGDLTAKKMVLALLELAQQDHGALDCCVVVILSHGCQASHLQFPGAVYGTDGCPVSVEKIVNIFNGTSCPSLGGKPKLFFIQAAGGEQKDHGFEVASTSPEDESPGSNPEPDATPFQEGLRTFDQLDAISSLPTPSDIFVSYSTFPGFVSWRDPKSGSWYVETLDDIFEQWAHSEDLQSLLLRVANAVSVKGIYKQMPGCFNFLRKKLFFKTS |  | can inhibit apoptosis | can also inhibit apoptosis | as efficient as that observed with Bcl-xL or X-IAP
